Here are results for two molecules from US20090053225A1 (QUARK PHARMACEUTICALS, published 2009).

The target in test [1] is T1, CD59 purified from human erythrocytes (human, UniProt P13987 26-102).
T1 construct: mature; Native protein purified from red cells; coated on plates for ELISA, or incubated with guinea pig erythrocytes (GPE-CD59) for the reactive lysis test
T1 sequence (looked up): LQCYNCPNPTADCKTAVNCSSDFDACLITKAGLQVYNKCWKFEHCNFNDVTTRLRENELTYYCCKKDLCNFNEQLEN
Kind of test: ELISA with phage and soluble scFv on coated purified antigen. The protocol:
(§1) Microtiter plates were coated with 100 μl of the various CRPs (10 μg/ml) followed by 100 μl of phage suspension in MPBS. Anti-M13 peroxidase conjugated mAb was used as a secondary antibody. Data represent mean values±SD of three different experiments.
(§2) The specificity of the selected clones was assessed by ELISA using both phage and soluble scFv (FIG. 1).
(In general: In an ELISA, binding on a coated surface is turned into a signal by an enzyme label.)

Test [2] addresses T2, CD55 purified from human erythrocytes (human, UniProt P08174 35-353).
T2 construct: mature; Native protein purified from red cells; coated on plates for ELISA, or incubated with antibody-sensitised sheep erythrocytes (EA-CD55) for the hemolytic assay; also called decay-accelerating factor; DAF
T2 sequence (looked up): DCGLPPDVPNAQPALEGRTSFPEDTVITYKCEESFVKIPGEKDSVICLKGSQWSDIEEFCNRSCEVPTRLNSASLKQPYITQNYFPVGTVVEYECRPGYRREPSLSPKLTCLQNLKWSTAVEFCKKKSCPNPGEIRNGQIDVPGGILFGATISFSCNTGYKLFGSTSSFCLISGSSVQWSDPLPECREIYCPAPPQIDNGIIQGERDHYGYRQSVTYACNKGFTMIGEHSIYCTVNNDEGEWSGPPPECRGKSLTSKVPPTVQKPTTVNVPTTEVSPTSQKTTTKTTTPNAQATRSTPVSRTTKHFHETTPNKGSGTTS
The test is described as above. The protocol:
as §1, §2

B1: scFv TS-55 (anti-CD55 clone) (scFv)
scFv: SSELTQEPAVSVALGQTVSITCQGDSLRSYYASWYQQKPGQAPIPVIYGKNNRPSGIPDRFSGSSSGNTASLTITGAQAEDEADYYCSSRDNRGTHRWVFGGGTKLTVLSGGSTITSYNVYYTKLSSSGTQVNLRESGGGLVQPGRSLRLSCAASGFTFDDYAMHWVRQAPGKGLEWVSGISWNSGSIGYADSVKGRFTISRDNAKNSLYLQMNSLRAEDTALYYCAKDRSDRGRLLDYWGLGTLVTVS
notes: also called Clone anti CD 55; anti-CD55 scFv
On to B1, for which, in test [1], the binding result was “no binding”.

B2: scFv TS-59 (anti-CD59 clone) (scFv)
scFv: DIVLTQSPDSLAVSLGERATINCKSSQSVLYSSNNKNYLAWYQQKPGQPPKLLIYWASTRESGVPDRFSGSGSGTDFTPAISSLQAEDVAVYYCQQYYSTPQLTFGGGTKVDIKSGGSTITSYNVYYTKLSSSGTQVQLQQSGGGVVQPGRSLGLSCAASGFTFSSYGMNWVRQAPGKGLEWVSYISSSSSTIYYADSVKGRFTISRDNSKNTLYLQMNSLRAEDTAVYYCARGPGMDVWGQGTTVTVS
notes: also called Clone anti CD 59; anti-CD59 scFv
With B2, the binding result in test [2] is “no binding”.
